Measurements from the nanobody polyreactivity screen of Harvey et al. (2022).

assay: yeast display, Sf9 membrane polyspecificity reagent, FACS + sequencing; frameworks hold sequencing errors
In short: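 Genes from sorted yeast were amplified by colony PCR, read by MiSeq 2 × 250 sequencing and filtered on CDR length. These cells carried a synthetic nanobody library in Saccharomyces cerevisiae BJ5465 and were sorted by FACS into low and high (top ~1%) gates on anti-HA and streptavidin fluorescence. Polyreactivity is labelled according to the gate of origin.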

| Sequence | polyreactivity (PSR sort gate) |
| --- | --- |
| QVQLVESGGRLVQAGGSLRLSCAASGSIFNAYAMGWYRQAPGKEREFVAVITSNGGITYYADSVKGRFTISRDNAKNTVYLQMNSLKPEDTAVYYCAAYEIYYEFDSWGQGTQVTVSS | low polyreactivity |
| QVQLVESGGRLVQAGGSLRLSCAASGSIFQYYARGWYRQAPGKVREFVSAITSDGSSTYYADSVKGRFTISRDNAKNTVYLQMKSLKPEDTAVYYCAAGWVGYRRPSMYYWGQVTQVTVSS | high polyreactivity |
| QVQLVESGGRLVQAGGSLRLSCAASGSTFDENAMGWYRQAPGKERELVAAISRRGVSTYYADSVKGRFTISRDNEKNTVYLQMNSVKPEDTAVYYCARRYGGVGMYYWGQGTQVTVSS | high polyreactivity |
| QVQLVESGGRLVQAGGSLRLSCAASGSTFGRYTMGWYRQAPGKERELVTAITSSGDSTYYADSVKGRFTISRDNAKNTVYLQMNSLKPEDTAVYDCAADYADLNDYWGQGTQVTVSS | low polyreactivity |
| QVQLVESGGRLVQAGGSLRLSCAASGSTFGWYAMAWYRPAPGKERELVAAIRSNGGSTYYADSVKGRFTISRDNAKNTVYLQMNSLKPEDTAVYYCAARGSPSKHHWYDYWGQGTQVTVSS | low polyreactivity |
| QVQLVESGGRLVQAGGSLRLSCAASGSTFTKYALGWYRPAPGKERELVAAISRSGGSTYYADSVKGRFSISRDNAKNTVYLQMNSLKPEDTAVYYCAARDSSRNYFGDGARDYWGQCTQVTVSS | high polyreactivity |
| QVQLVESGGRLVQAGGSLRLSCAASGSTFVQNAMGWYRQATGKERELVAAISKSGGRTYYADSVKGRFTISRDNAKNTVYLQMNSLKPEDTAVYYCAAVTVASPTRMDYWGQGTQVTVSS | high polyreactivity |
| QVQLVESGGRLVQAGGSLRLSCAASGSTFYRNAMGWYRQAPGKERELVASINNGGSTYYADSVKGRFTISRDNAKNTVYLQMNSLKPEDTAVYYCAATESWDYDYWGQGTQVTVSS | low polyreactivity |
| QVQLVESGGRLVQAGGSLRLSCAASGSTIAYNAMGWYIQAPGKERELVAANSKGGGSTYYADSVKGRFTISRDNAQNTVYLAMNSLKPAETAVYYCAAVSGYSTGGSRYRYNYWGQGTQVTVSS | high polyreactivity |
| QVQLVESGGRLVQAGGSLRLSCAASGSTITPNSMGWYRQAPGKERELVAAITTGGSTKYADSVKGRFTISRDNAKKTVYLQLTSLNPADTAVYYCNTDRGAYFYVIWPPWTYDWGQGTQVTVTS | low polyreactivity |
| QVQLVESGGRLVQAGGSLRLSCAASGSTLYAYAMGWYRPAPGKERELVAAIRTGGSTYYADSVNGRFTISRDNAKNTVYLQMNSLKPEDTAVYYCAADHGYQYGYWGQGTQVTVSS | low polyreactivity |
| QVQLVESGGRLVQAGGSLRLSCAASGYTYDRYAMGWYRQAPGKERQLVAAISSSGTSTYYADSVKGRFTISRDNEKNTVYLQMNSLKPEDTAVYYCAATRLKLKFAYWGQGTQVTVSS | high polyreactivity |
| QVQLVESGGRLVQAGGSLRLSCAPSGFIFGDNGIGGSRQSPGKEMELVAGINRRSGTYYADSVKGRFTISRDNAKNTVYLLMNSLKREDTAVYYCAARLDAYQSGRYYYWGQGTQVTLSS | high polyreactivity |
| QVQLVESGGRLVQAGGSLRLSCAPSGFMFADYMGWYRQAPGKERALVASISSTGSSTYADSVKGRFTITRDNAKNTVYLPMNSLKPEDTAVYDCAATGVWYSSNDYASEYDYWGQGTQVTVSS | high polyreactivity |
| QVQLVESGGRLVQAGGSLRLSCAPSGSIFWGYAMGWYRQAPGKERELVAVISRGGSTYYADSVKGRFTISRDNAKNTVYLKMNSLKPEDTAVYYCAASSSWFYSPEYDYWGQGTQVTVSS | low polyreactivity |
| QVQLVESGGRLVQAGGSLRLSCASSGRTFYPYVMGWYRQAPGKERELVAAISSGTSTYYADSVKGRFTISRDNAKNTVYLQMNSLKPEDTAVYYCAVRVYTYVLYDFWGQGTQVTVSS | high polyreactivity |
| QVQLVESGGRLVQAGGSLRLSCSASGLTFQYYAMGWYRQAPGKERELVATINSGGSTKYADSVKGRFTISRDNAKNTVYLQMNRLKPEDTAVYYCAADPYRRYRRPSRYGYWGQGTQVTVSS | high polyreactivity |
| QVQLVESGGRLVQAGGSLRLSGAASVLTFNFNAMGWYRQAPGKERELVAANSYRAGSTYYADSVKGRFTISRDNAKNTVYLQMNSLKPEDTAVYYCAKPTYRFYWGDFDYWGQGTQVTVSS | low polyreactivity |
| QVQLVESGGRLVQAGGSLRLTCAASGFIFKTNGMRWYRKAPGKERELVAAITSRGGSTYYADSVKGRFTISRDNAKNNVYLQMNSLKPEDTAVYYCAARGSRYTDYDYWGQGTHVTVSS | high polyreactivity |
| QVQLVESGGRLVQAGGSLRLTCAASGSTIYQYVMRWYRQAPGKERELVAVITWSGGRTYYADSVKGRFTISRDNAKNTVYLQMNSLKPEDTAGYYCAADPLSGYDYWGQGTHVTVSS | low polyreactivity |
| QVQLVESGGRLVQAGGSLSLSCAASGSIFYRNAMGWYSQAPAKEWEFVAVITSSGTSTYYADSVKGRFTISRDNEKNTVSFQMKSLKPEDTAVYYCAADESSPSRGDYWGQGTQVSVSS | low polyreactivity |
| QVQLVESGGRLVQAGGTLRLSCAASGRIFGYNAMGWYRQAPGKERHLVAVITSGGSKNYADSVKGRFTISRDNAKHTVYLQMNSVKPEDTAVYYCPRRIWDRWSYPVRVRYYYWGQGTQVTGSS | high polyreactivity |

| Sequence | polyreactivity (PSR sort gate) |
| --- | --- |
| QVQLVESGGRLVQAGRSLRLSCAASGGTFQRYVMGWYRQAPGKERELVAAISRSGSTYADSVKGRFTISRDNAKNTGYLQMNSLKPEDTAVYYCNVVRYYRYYLHGYDYWGQGTQVTVSS | high polyreactivity |
| QVQLVESGGRLVQAGRSLRLSCAASGINFYGYAMGWYRQAPGKERELVAAITSYDGSTYYADSVKGRFTISRDNAKNTVYLQMNSLKPEDTAVYYCAAYRYGSRGGYWGQGTQVTVSS | high polyreactivity |
| QVQLVESGGRLVQPGGSLSLSCADSGNIFYWNTMGWYRQAPGKERELVATISWSGRTTYYADSVKGRFTISRDNEKNTVYLQMNSLKPEDTAVYYCAADVTSGVYSFSFDYLGQGTQVTVSS | low polyreactivity |
| QVQLVESGGRVLQAGGSLRLSCAASGRIFSYNDMGWYRQAPGKERELVATITSGDSTISADSVKGRFTISRDNAKNTVYLQMNSLKPEDTAVYYCATDIYGLPVDYWGQGTQVTVSS | low polyreactivity |
| QVQLVESGGSLVQAGGSLRLSCAASGRIFITNAMGAYRQAPGKERELVAAIRRRGGNTYYADSVKGRFTISRDNAKNTVYLQMNSLKPEDTAVYYCAVYPRPYKYNYWGQGTQVTVSS | high polyreactivity |
| QVQLVESGGSLVQAGGSLRLSCDASGRTFGTNAMGWYRQAPRKETELVAAISWRGTSTYYADSVKGRFTNSRDNAKNTVYLQMNSLKPEDTAVYYCAARGYRADQWEYDYWGQGTQVTVSS | low polyreactivity |
| QVQLVESGGSLVQAGGSLRLSCDASVLTFPVYAMGWYRQAPGKEREFVASISGRGASTYYADSVKGRFTISRDNAKNTVYLQMNSLIPEDTAVYYCNADVWLLSYFPEYDYWGQGNQVTVSS | low polyreactivity |
| QVQLVESGGVIVQAGGSLRLSCAATGSNFWSYAMGSSRPAPGKERELVASITRSGGSTYYADSVKGRFTISRDNAKNTVYSQMNSLKPEDTAVYYCNARRTTRWGSSKYEYDYWGQGTQVTVSS | high polyreactivity |
| QVQLVESGGVLDQAGGSLGLSCAASGRTLRKYAMGWYRQAPGKERELVAAITWTGGTTYYADSVKGRFTISRDNAKNTVYLQMNTLKPEDTAFYFCGTVRRYGYGYDYWGQGTQVTVSS | high polyreactivity |
| QVQLVESGGVLVQAGGSLLLSCAASGFTFGCYGMGWYRQARGKERELGAAITKSGGRTYYADSVKGRFTISRDNAKNTVYLQMNSLLREDTAVYYCAASSQGDGGYWGQGSQVTVSS | high polyreactivity |
| QVQLVESGGVLVQAGGSLRITCAASGHIFFYDTMGWYRQAPGKERELVAGITIGGSTNYADSVKGRFTISRDNAKNTVSLQMNSLKPEDTAVYFCNVVKYVYIYSYWEYYYWGQCTQVTVSS | low polyreactivity |
| QVQLVESGGVLVQAGGSLRLICAASGSIFNRYAMGWYRHAPGKDRELVAAISRSGGRTYYADSVKGRFTISRDNAKNTVYLQMNSLKPEDTAVYYCAADKYYRQHEYDYWGQGTQVTVSS | high polyreactivity |
| QVQLVESGGVLVQAGGSLRLICAASVFTFYSYAIGWYRQATGTERELVAGISRSGGSTYYADSVKGRFTISRDNAKNTVYLHMNRLKPEDTAVYYCNVRLRKKIQNSKYDYWGQGTQVSVSS | high polyreactivity |
| QVQLVESGGVLVQAGGSLRLSCAASGFTFSLYGMGWYRQAPGKEREFVAAIRSGGSTNYADSVKGRFTISRDNAKNTVYLQMNRLKPEDTAVYYCATDIHSVHNNRDKHDYDYWGQGTQVTVSS | low polyreactivity |
| QVQLVESGGVLVQAGGSLRLSCAASGGIFQGNVMGWYRQAPGKERELVASIRRGGSTNYADSVKGPFTISRDNAKNTVYLQMNSLKPEDTAVYYCNAAFYKEYYYWGQGTQVTVSS | low polyreactivity |
| QVQLVESGGVLVQAGGSLRLSCAASGITLTANAMGWYRQAPGKERELVAAISRGGSKYYADSVKGRFTISRDNAKNPGYLQMNSLKPEDTAVYYCNKAGGYWYAKRDYDYWGQVTQVTVSS | high polyreactivity |
| QVQLVESGGVLVQAGGSLRLSCAASGLDYYAIGWYRQAPGKERELVAAIDWSGVSTYYADSVKGRFTISRDNAKNTVYLQMNSLKPEDTAVDYCAALYYGWPRVSYGLGEYGYWGQGTQVTVSS | low polyreactivity |
| QVQLVESGGVLVQAGGSLRLSCAASGNIFDQNAMGWYRQAPGKERELVAAITRSGSTTYYADSVKGRFTISRDNAKNTVYLQMNSLNPEDTAVYYCAAKVYAYRTYKMYYWGQGTQVTVSS | high polyreactivity |
| QVQLVESGGVLVQAGGSLRLSCAASGRIFAYYTMGWYRQAPGKEREMVAAISLSGSSTYYADSVKGRFTISRDNAKNNVYLHMNSLKPEDTAVYYCNADSYAYYSWYDYWGQGTQVTVSS | low polyreactivity |
| QVQLVESGGVLVQAGGSLRLSCAASGRIFDYYAMGWYRKAPGKERELVAAITSGGTTTYYADSVKGRFTISRDNAKNTVYLQMKSLKPEDTAVYYCAKYPYHIYHTEGDYWGQATQVTVSS | low polyreactivity |
| QVQLVESGGVLVQAGGSLRLSCAASGRIFSIYGMGWYRQAPVKEREFVASITYSGGSTYNADSVKGRFTISRDTAKNTVYLQMKSLKPEDTAVYYCAKYVFSAYDYWGQGTQVTVSS | low polyreactivity |
